Experimental data published in patent US20150133630A1 (UNIVERSITY OF TOKYO, published 2015).
Bridge positions count the residues as written; N and C are the ends. Square brackets hold non-standard residues; d marks the D form. Tyr(3-NO2) = N[C@@H](Cc1ccc(O)c([N+](=O)[O-])c1)C(=O)O; Arg(NO2) = N=C(NCCC[C@H](N)C(=O)O)N[N+](=O)[O-]

Assays:
human soluble FcRn [1] = molecular target: T1, human soluble FcRn (human, UniProt P55899 24-297; P61769 21-119, limits assumed, chemically biotinated with NHS-biotin in the mRNA display assays; amine-coupled to the sensor chip in the Biacore assay); assay: SPR, Biacore T100, KD at pH 7.4 against KD at pH 6.0
T1 construct: also called neonatal Fc receptor
Experimental: (§1) In order to find whether a peptide alone interacts with FcRn in a pH dependent manner, the peptide 2G01D not having SGSGS on the C-terminal side of 8D-01 and amidated at the C-terminal was synthesized on a solid phase and a dissociation constant Kd binding constant was measured using Biacore T100 (GE Healthcare). FcRn was immobilized onto a sensor chip by an amine coupling method. The following is the peptide 2G01D:
(§2) On the other hand, a solid-phase synthesized peptide 2G01D was added as an analyte to a phosphate buffer having a pH 6.0 or 7.4 and a dissociation constant was measured.

human soluble FcRn [2] = molecular target: T1, human soluble FcRn; assay: SPR, Biacore T100, FcRn amine-coupled to chip, peptide as analyte, phosphate buffer pH 6.0
Experimental: as §1, §2

human soluble FcRn [3] = molecular target: T1, human soluble FcRn; assay: SPR, Biacore T100, FcRn amine-coupled to chip, peptide as analyte, phosphate buffer pH 7.4
Experimental: as §1, §2

- fold change in dissociation constant between pH 7.4 and pH 6.0 (human soluble FcRn [1]): ~70 times
- Kd (human soluble FcRn [2]): 4.26 nM
- koff (human soluble FcRn [2]): 0.00394 s⁻¹
- kon (human soluble FcRn [2]): 925000 M⁻¹ s⁻¹
- Kd (human soluble FcRn [3]): 293 nM
- koff (human soluble FcRn [3]): 0.00955 s⁻¹
- kon (human soluble FcRn [3]): 32600 M⁻¹ s⁻¹
B1: peptide 2G01D (peptide)
peptide: {CH2CO}-[dNty]F[Tyr(3-NO2)]LYN[Arg(NO2)]GDPL[Tyr(3-NO2)]LCG-NH2
modifications: thioether N-14; not fully specified
notes: also called solid-phase synthesized peptide 2G01D
